These results are taken from US20250026836A1 (UCB, published 2025).

Assay [1] has as its target T1, Human HLA-G ECD + B2m (soluble, AVItev10His tag) (human).
T1 construct: also called soluble HLA-G
The assay is described as follows: SPR, 25 C, hIgG4P captured via anti-human Fc, HLA-G ECD+B2m 50 nM as analyte. (In general: Surface plasmon resonance follows binding to a sensor surface in real time, without labels.)

Assay [2] deals with T2, PeptideB2mHLAG C42S mut (single-chain peptide-B2m-HLA-G ECD fusion, His tag removed) (human).
T2 construct: Used for complexing and in the crystal structure; also called HLA-G fusion protein
The assay is described as follows: complex formation and size exclusion chromatography before crystallisation. Background: In gel filtration, larger molecules generally elute earlier.

In assay [3] the target is T1, Human HLA-G ECD + B2m (soluble, …). Description: SPR, 25 C, hIgG1 captured via anti-human Fc, HLA-G ECD+B2m 50 nM as analyte, first experiment.
The target is the same in assay [4]. Description: SPR, 25 C, hIgG1 captured via anti-human Fc, HLA-G ECD+B2m 50 nM as analyte, second experiment.

Numbering of substitutions follows the chain as printed.

B1: 12389gL2gH1 hIgG4P (antibody)
heavy: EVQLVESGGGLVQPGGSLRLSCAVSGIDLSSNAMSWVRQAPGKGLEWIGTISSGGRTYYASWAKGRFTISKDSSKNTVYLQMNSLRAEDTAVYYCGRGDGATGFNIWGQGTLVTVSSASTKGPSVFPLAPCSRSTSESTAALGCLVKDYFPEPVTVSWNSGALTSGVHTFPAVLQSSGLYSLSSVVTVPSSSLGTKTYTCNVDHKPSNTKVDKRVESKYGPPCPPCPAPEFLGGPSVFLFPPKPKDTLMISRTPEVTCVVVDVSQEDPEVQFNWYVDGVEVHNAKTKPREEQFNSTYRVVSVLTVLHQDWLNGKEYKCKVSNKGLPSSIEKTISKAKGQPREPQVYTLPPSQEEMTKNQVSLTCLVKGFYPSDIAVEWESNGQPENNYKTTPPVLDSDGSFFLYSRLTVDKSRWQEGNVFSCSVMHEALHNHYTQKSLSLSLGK
light: AIVLTQSPSSLSASVGDRVTITCQASQSIYSYLSWYQQKPGKAPKLLIYKASTLASGVPSRFSGSGSGTDFTLTISSLQPEDFATYYCQNHWNVGGNGWPFGGGTKVEIKRTVAAPSVFIFPPSDEQLKSGTASVVCLLNNFYPREAKVQWKVDNALQSGNSQESVTEQDSKDSTYSLSSTLTLSKADYEKHKVYACEVTHQGLSSPVTKSFNRGEC
With B1, in assay [1], the equilibrium dissociation constant (Kd) (as a rule, the concentration at which binding is half-saturated) is 7.63 nM; the koff – broadly, the first-order rate constant of dissociation – is 0.00708 s⁻¹; the kon – broadly, the rate constant with which the complex forms – amounted to 928000 M⁻¹ s⁻¹.

B2: 12389gL2gH8 hIgG4P (antibody, V domains shown)
VH: EVQLVESGGGLVQPGGSLRLSCAVSGIDLSSNAMSWVRQAPGKGLEWIGTISSGGRTYYASWAKGRFTISRDSSKNTVYLQMNSLRAEDTAVYYCGRGDGATGFNIWGQGTLVTVSS
VL: AIVLTQSPSSLSASVGDRVTITCQASQSIYSYLSWYQQKPGKAPKLLIYKASTLASGVPSRFSGSGSGTDFTLTISSLQPEDFATYYCQNHWNVGGNGWPFGGGTKVEIKR
On to B2, for which, in assay [1], the Kd amounted to 15.4 nM, the koff amounted to 0.0121 s⁻¹ and the kon came out at 787000 M⁻¹ s⁻¹.

B3: 12389gL1gH1 hIgG4P (antibody, V domains shown)
VH: B2 VH with R71K
VL: B2 VL with D70Q
As to B3, in assay [1], the dissociation constant (Kd) worked out at 7.99 nM, the dissociation rate constant (koff) turned out to be 0.00678 s⁻¹ and the kon stood at 848000 M⁻¹ s⁻¹.

B4: 12389gL3gH1 hIgG4P (antibody)
heavy: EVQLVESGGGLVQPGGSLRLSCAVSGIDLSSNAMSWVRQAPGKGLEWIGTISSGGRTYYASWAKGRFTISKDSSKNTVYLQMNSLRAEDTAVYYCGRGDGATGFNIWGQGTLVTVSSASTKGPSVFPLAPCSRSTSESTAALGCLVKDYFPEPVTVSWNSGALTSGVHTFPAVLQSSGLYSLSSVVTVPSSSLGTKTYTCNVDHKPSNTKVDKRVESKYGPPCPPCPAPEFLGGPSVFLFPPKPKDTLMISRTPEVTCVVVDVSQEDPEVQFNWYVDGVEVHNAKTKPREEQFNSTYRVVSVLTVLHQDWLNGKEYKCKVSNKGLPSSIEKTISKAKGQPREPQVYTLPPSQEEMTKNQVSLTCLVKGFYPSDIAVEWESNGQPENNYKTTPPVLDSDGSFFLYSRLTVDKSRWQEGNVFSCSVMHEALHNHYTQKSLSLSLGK
light: B1 light with V3Q
For the molecule B4, in assay [1], the Kd was 8.25 nM, the koff was 0.00697 s⁻¹ and the kon was found to be 845000 M⁻¹ s⁻¹.

B5: 12389gL2gH16 hIgG4P (antibody)
heavy: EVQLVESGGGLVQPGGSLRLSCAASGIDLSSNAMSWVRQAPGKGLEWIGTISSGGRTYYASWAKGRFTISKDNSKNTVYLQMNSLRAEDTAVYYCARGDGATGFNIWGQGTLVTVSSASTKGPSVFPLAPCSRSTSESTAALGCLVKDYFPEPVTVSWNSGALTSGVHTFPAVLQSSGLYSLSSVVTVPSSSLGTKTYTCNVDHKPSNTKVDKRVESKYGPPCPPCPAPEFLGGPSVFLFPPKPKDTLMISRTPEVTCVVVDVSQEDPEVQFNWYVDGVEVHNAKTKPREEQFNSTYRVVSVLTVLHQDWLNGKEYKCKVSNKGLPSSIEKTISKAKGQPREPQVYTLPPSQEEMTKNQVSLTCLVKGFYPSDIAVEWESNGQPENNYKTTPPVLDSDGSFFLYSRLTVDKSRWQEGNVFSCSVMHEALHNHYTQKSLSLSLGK
light: B1 light
notes: also called Graft 12389gL2gH16
For the molecule B5, in assay [1], the Kd turned out to be 6.06 nM.

B6: 12389gL2gH14 hIgG4P (antibody, V domains shown)
VH: B2 VH with V24A, R71K, G96A
VL: B2 VL
B6: in assay [1], the Kd is 7.58 nM, the off-rate constant (koff) came out at 0.00664 s⁻¹ and the kon came out at 875000 M⁻¹ s⁻¹.

B7: 12389gL2gH15 hIgG4P (antibody, V domains shown)
VH: B2 VH with R71K, S73N, G96A
VL: B2 VL
On to B7, for which, in assay [1], the equilibrium dissociation constant (Kd) amounted to 6.33 nM, the off-rate constant (koff) was found to be 0.00567 s⁻¹ and the on-rate constant (kon) is 896000 M⁻¹ s⁻¹.

B8: 12389gL3gH16 hIgG4P (antibody)
heavy: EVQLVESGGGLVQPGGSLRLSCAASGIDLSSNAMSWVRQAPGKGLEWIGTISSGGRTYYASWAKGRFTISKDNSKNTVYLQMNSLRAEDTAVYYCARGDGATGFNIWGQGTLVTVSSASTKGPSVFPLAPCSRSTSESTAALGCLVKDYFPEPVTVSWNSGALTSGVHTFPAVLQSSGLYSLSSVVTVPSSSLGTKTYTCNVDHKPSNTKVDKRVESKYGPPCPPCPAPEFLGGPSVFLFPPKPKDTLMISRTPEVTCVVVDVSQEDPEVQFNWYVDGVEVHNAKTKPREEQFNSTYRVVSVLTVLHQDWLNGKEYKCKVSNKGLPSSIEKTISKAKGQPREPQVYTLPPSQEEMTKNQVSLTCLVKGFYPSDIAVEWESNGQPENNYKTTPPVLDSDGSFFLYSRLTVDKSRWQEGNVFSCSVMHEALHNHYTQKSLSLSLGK
light: B1 light with V3Q
With B8, the equilibrium dissociation constant (Kd) in assay [1] came out at 6.72 nM.

B9: 12389gL2gH13 hIgG4P (antibody, V domains shown)
VH: B2 VH with V24A, R71K, S73N
VL: B2 VL
Take B9: in assay [1], the Kd came out at 6.61 nM, the koff is 0.00632 s⁻¹ and the on-rate constant (kon) stood at 956000 M⁻¹ s⁻¹.

B10: 12389gL2gH6 hIgG4P (antibody, V domains shown)
VH: B2 VH with G49S, R71K
VL: B2 VL
For B10, in assay [1], the Kd came out at 12.5 nM, the off-rate constant (koff) is 0.0104 s⁻¹ and the kon worked out at 839000 M⁻¹ s⁻¹.

B11: 12389gL2gH12 hIgG4P (antibody, V domains shown)
VH: B2 VH with R71K, G96A
VL: B2 VL
For the molecule B11, in assay [1], the Kd was found to be 7.39 nM, the koff was determined as 0.00624 s⁻¹ and the kon amounted to 844000 M⁻¹ s⁻¹.

B12: 12389gL2gH4 hIgG4P (antibody, V domains shown)
VH: B2 VH with V24A, R71K
VL: B2 VL
Turning to B12, in assay [1], the dissociation constant Kd worked out at 8.09 nM, the dissociation rate constant (koff) amounted to 0.00718 s⁻¹ and the association rate constant (kon) came to 888000 M⁻¹ s⁻¹.

B13: 12389gL2gH5 hIgG4P (antibody, V domains shown)
VH: B2 VH with I48V, R71K
VL: B2 VL
On to B13, for which, in assay [1], the Kd is 12.4 nM, the koff turned out to be 0.0101 s⁻¹ and the kon worked out at 817000 M⁻¹ s⁻¹.

B14: 12389gL2gH9 hIgG4P (antibody, V domains shown)
VH: B2 VH with R71K, S73N
VL: B2 VL
With B14, in assay [1], the dissociation constant (Kd) is 7.09 nM, the koff was 0.00603 s⁻¹ and the kon was 850000 M⁻¹ s⁻¹.

B15: 12389gL2gH11 hIgG4P (antibody, V domains shown)
VH: B2 VH with R71K, V78L
VL: B2 VL
On to B15, for which, in assay [1], the equilibrium dissociation constant (Kd) worked out at 10.7 nM, the koff turned out to be 0.00907 s⁻¹ and the kon came out at 850000 M⁻¹ s⁻¹.

B16: 12389 (chimeric rabbit V regions/human Fc) expressed as hIgG4P (antibody, V domains shown)
VH: QSVEESGGRLVTPGTPLTLTCTVSGIDLSSNAMSWVRQAPGEGLEWIGTISSGGRTYYASWAKGRFTISKTSTTVDLKIPSPTTEDTATYFCGRGDGATGFNIWGPGTLVTVSS
VL: ALVMTQTPASVSEPVGGTVTIKCQASQSIYSYLSWYQQKPGQPPKLLIYKASTLASGVSSRFKGSGSGTQFTLTISDLECGDAATYYCQNHWNVGGNGWPFGGGTEVVVK
As to B16, in assay [1], the Kd stood at 9.69 nM, the koff turned out to be 0.0092 s⁻¹ and the kon turned out to be 949000 M⁻¹ s⁻¹.

B17: Rabbit Fab (VR12389) (Fab, V domains shown)
VH: B16 VH
VL: ALVMTQTPASVSEPVGGTVTIKCQASQSIYSYLSWYQQKPGQPPKLLIYKASTLASGVSSRFKGSGSGTQFTLTISDLECGDAATYYCQNHWNVGGNGWPFGGGTEVVVKR
notes: Used for the crystal structure; also called VR12389 RbFab
As to B17, the binding result in assay [2] is given as “binds”.

B18: 12389 (chimeric rabbit V regions/human Fc) expressed as hIgG1 (antibody, V domains shown)
VH: B16 VH
VL: B16 VL
In the case of B18, in assay [3], the dissociation constant Kd is 10.8 nM, the off-rate (koff) worked out at 0.0091 s⁻¹ and the kon is 841000 M⁻¹ s⁻¹. Moreover, in assay [4], the Kd turned out to be 11.7 nM, the koff came out at 0.00918 s⁻¹ and the kon worked out at 782000 M⁻¹ s⁻¹.
